# Measurements published in US20180141972.
# How the values were obtained:
# [1] = target: Spycatcher-WELQ-Tem1 fusion protein (Spycatcher followed by a SplB protease site with a P1' methionine and the lactamase Tem1) (UniProt P62593)
# [2] = system: Spycatcher-WELQ-LSSmOrange fusion protein
substance,measurement,setting,value
SplB protease fused to Spytag,"cleavage of the fusion protein to native Tem1 (gel, FIG. 3)",[1],this led to the cleavage of Tem1 at the first methionine
same,"cleavage of the fusion protein to native LSSmOrange (gel, FIG. 4)",[2],A similar experiment with LSSmOrange replacing Tem1 yielded the same result
